Results on one molecule are retold here after paper PMC9179170 (Nature, 2021).

In the assay the target is Hsp90α ATP-binding-deficient mutant Hsp90(D93N) (human, UniProt P07900 1-732, D93N). The assay is described as follows: cryo-EM structure.

B1: MBP–GRLBD(520–777) (F602S) (domain or fragment, UniProt P04150 520-777, looked up)
chain: IVPATLPQLTPTLVSLLEVIEPEVLYAGYDSSVPDSTWRIMTTLNMLGGRQVIAAVKWAKAIPGFRNLHLDDQMTLLQYSWMSLMAFALGWRSYRQSSANLLCFAPDLIINEQRMTLPCMYDQCKHMLYVSSELHRLQVSYEEYLCMKTLLLLSSVPKDGLKSQELFDEIRMTYIKELGKAIVKREGNSSQNWQRFYQLTKLLDSMHEVVENLLNYCFQTFLDKTMSIEFPEMLAEIITNQIPKYSNGNIKKLLFHQK
For the molecule B1, the binding result is recorded as “binds”.
